Assay results as given in patent US20180155451A1 (published 2018).

B1: heterodimerized antibody GpH7-A5/GpH7-B3 variant S298_01G/GpL16-k0 (antibody, human IgG1, kappa)
heavy 1: not shown
heavy 2: not shown
light: DIVMTQSPLSLPVTPGEPASISCQASESLVHSNRNTYLHWYLQKPGQSPQLLIYKVSNRFSGVPDRFSGSGSGTDFTLKISRVEAEDVGVYYCSQNTHVPPTFGQGTKVEIERTVAAPSVFIFPPSDEQLKSGTASVVCLLNNFYPREAKVQWKVDNALQSGNSQESVTEQDSKDSTYSLSSTLTLSKADYEKHKVYACEVTHQGLSSPVTKSFNRGEC
notes: Substitution in only one H chain (GpH7-B3 side); also called He Ab
B2: heterodimerized antibody GpH7-A5/GpH7-B3 variant S298_02A/GpL16-k0 (antibody, human IgG1, kappa)
heavy 1: not shown
heavy 2: not shown
light: B1 light
notes: as for B1
B3: heterodimerized antibody GpH7-A5/GpH7-B3 variant S298_03V/GpL16-k0 (antibody, human IgG1, kappa)
heavy 1: not shown
heavy 2: not shown
light: B1 light
notes: as for B1
B4: heterodimerized antibody GpH7-A5/GpH7-B3 variant S298_04F/GpL16-k0 (antibody, human IgG1, kappa)
heavy 1: not shown
heavy 2: not shown
light: B1 light
notes: as for B1
B5: heterodimerized antibody GpH7-A5/GpH7-B3 variant S298_05P/GpL16-k0 (antibody, human IgG1, kappa)
heavy 1: not shown
heavy 2: not shown
light: B1 light
notes: as for B1
B6: heterodimerized antibody GpH7-A5/GpH7-B3 variant S298_07I/GpL16-k0 (antibody, human IgG1, kappa)
heavy 1: not shown
heavy 2: not shown
light: B1 light
notes: as for B1
B7: heterodimerized antibody GpH7-A5/GpH7-B3 variant Y296_02A/GpL16-k0 (antibody, human IgG1, kappa)
heavy 1: not shown
heavy 2: not shown
light: B1 light
notes: as for B1
B8: heterodimerized antibody GpH7-A5/GpH7-B3 variant Y296_03V/GpL16-k0 (antibody, human IgG1, kappa)
heavy 1: not shown
heavy 2: not shown
light: B1 light
notes: as for B1
B9: heterodimerized antibody GpH7-A5/GpH7-B3 variant Y296_05P/GpL16-k0 (antibody, human IgG1, kappa)
heavy 1: not shown
heavy 2: not shown
light: B1 light
notes: as for B1
B10: heterodimerized antibody GpH7-A5/GpH7-B3 variant Y296_07I/GpL16-k0 (antibody, human IgG1, kappa)
heavy 1: not shown
heavy 2: not shown
light: B1 light
notes: as for B1
B11: heterodimerized antibody GpH7-A5/GpH7-B3 variant Y296_08L/GpL16-k0 (antibody, human IgG1, kappa)
heavy 1: not shown
heavy 2: not shown
light: B1 light
notes: as for B1
B12: heterodimerized antibody GpH7-A5/GpH7-B3 variant Y296_11K/GpL16-k0 (antibody, human IgG1, kappa)
heavy 1: not shown
heavy 2: not shown
light: B1 light
notes: as for B1
B13: heterodimerized antibody GpH7-A5/GpH7-B3 variant Y296_12R/GpL16-k0 (antibody, human IgG1, kappa)
heavy 1: not shown
heavy 2: not shown
light: B1 light
notes: as for B1
B14: heterodimerized antibody GpH7-A5/GpH7-B3 variant Y296_13S/GpL16-k0 (antibody, human IgG1, kappa)
heavy 1: not shown
heavy 2: not shown
light: B1 light
notes: as for B1
B15: heterodimerized antibody GpH7-A5/GpH7-B3 variant Y296_19Q/GpL16-k0 (antibody, human IgG1, kappa)
heavy 1: not shown
heavy 2: not shown
light: B1 light
notes: as for B1
B16: GpH7-A5/GpH7-B3 variant P271_14T/GpL16-k0 (antibody, human IgG1, kappa)
heavy 1: not shown
heavy 2: not shown
light: B1 light
notes: mutation in one H chain only; also called He Ab P271_14T; P271T
B17: GpH7-A5/GpH7-B3 variant P271_15Y/GpL16-k0 (antibody, human IgG1, kappa)
heavy 1: not shown
heavy 2: not shown
light: B1 light
notes: mutation in one H chain only; also called He Ab P271_15Y; P271Y
B18: GpH7-A5/GpH7-B3 variant P271_16H/GpL16-k0 (antibody, human IgG1, kappa)
heavy 1: not shown
heavy 2: not shown
light: B1 light
notes: mutation in one H chain only; also called He Ab P271_16H; P271H
B19: GpH7-A5/GpH7-B3 variant P329_01G/GpL16-k0 (antibody, human IgG1, kappa)
heavy 1: not shown
heavy 2: not shown
light: B1 light
notes: mutation in one H chain only; also called He Ab P329_01G; P329G
B20: GpH7-A5/GpH7-B3 variant P329_02A/GpL16-k0 (antibody, human IgG1, kappa)
heavy 1: not shown
heavy 2: not shown
light: B1 light
notes: mutation in one H chain only; also called He Ab P329_02A; P329A
B21: GpH7-A5/GpH7-B3 variant Q295_03V/GpL16-k0 (antibody, human IgG1, kappa)
heavy 1: not shown
heavy 2: not shown
light: B1 light
notes: mutation in one H chain only; also called He Ab Q295_03V; Q295V
B22: GpH7-A5/GpH7-B3 variant Q295_04F/GpL16-k0 (antibody, human IgG1, kappa)
heavy 1: not shown
heavy 2: not shown
light: B1 light
notes: mutation in one H chain only; also called He Ab Q295_04F; Q295F
B23: GpH7-A5/GpH7-B3 variant Q295_05P/GpL16-k0 (antibody, human IgG1, kappa)
heavy 1: not shown
heavy 2: not shown
light: B1 light
notes: mutation in one H chain only; also called He Ab Q295_05P; Q295P
B24: GpH7-A5/GpH7-B3 variant Q295_07I/GpL16-k0 (antibody, human IgG1, kappa)
heavy 1: not shown
heavy 2: not shown
light: B1 light
notes: mutation in one H chain only; also called He Ab Q295_07I; Q295I

The binders below were run against T1, FcγRIa extracellular domain with C-terminal His tag (human, UniProt P12314 16-292) (assay: SPR Biacore, relative binding amount).
T1 construct: extracellular domain; Soluble receptor expressed in FreeStyle293 cells and used as analyte in Biacore; also called FcgRI; 1a; not shown: His tag at the C terminus
T1 sequence (P12314 16-292): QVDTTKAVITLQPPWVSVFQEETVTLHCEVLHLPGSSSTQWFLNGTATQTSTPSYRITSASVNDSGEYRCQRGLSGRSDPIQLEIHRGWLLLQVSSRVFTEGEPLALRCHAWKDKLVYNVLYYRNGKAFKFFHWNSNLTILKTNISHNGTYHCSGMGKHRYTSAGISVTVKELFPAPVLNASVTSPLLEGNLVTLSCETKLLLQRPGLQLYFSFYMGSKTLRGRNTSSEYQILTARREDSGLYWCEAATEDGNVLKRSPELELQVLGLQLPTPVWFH

Row | He/Con_1a | Binder
1 | 104 % of GpH7-A5/GpH7-B3/GpL16-k0 (=100) | B1
2 | 107 % of GpH7-A5/GpH7-B3/GpL16-k0 (=100) | B2
3 | 110 % of GpH7-A5/GpH7-B3/GpL16-k0 (=100) | B3
4 | 109 % of GpH7-A5/GpH7-B3/GpL16-k0 (=100) | B4
5 | 91.6 % of GpH7-A5/GpH7-B3/GpL16-k0 (=100) | B5
6 | 107 % of GpH7-A5/GpH7-B3/GpL16-k0 (=100) | B6
7 | 103 % of GpH7-A5/GpH7-B3/GpL16-k0 (=100) | B7
8 | 104 % of GpH7-A5/GpH7-B3/GpL16-k0 (=100) | B8
9 | 95.6 % of GpH7-A5/GpH7-B3/GpL16-k0 (=100) | B9
10 | 104 % of GpH7-A5/GpH7-B3/GpL16-k0 (=100) | B10
11 | 104 % of GpH7-A5/GpH7-B3/GpL16-k0 (=100) | B11
12 | 105 % of GpH7-A5/GpH7-B3/GpL16-k0 (=100) | B12
13 | 106 % of GpH7-A5/GpH7-B3/GpL16-k0 (=100) | B13
14 | 105 % of GpH7-A5/GpH7-B3/GpL16-k0 (=100) | B14
15 | 112 % of GpH7-A5/GpH7-B3/GpL16-k0 (=100) | B15

Each binder was assayed against T2, FcγRIIb extracellular domain with C-terminal His tag (human, UniProt P31994 43-217) (assay: SPR Biacore, relative binding amount).
T2 construct: extracellular domain; Soluble receptor expressed in FreeStyle293 cells and used as analyte in Biacore; also called FcgRIIb; 2b; not shown: His tag at the C terminus
T2 sequence (looked up): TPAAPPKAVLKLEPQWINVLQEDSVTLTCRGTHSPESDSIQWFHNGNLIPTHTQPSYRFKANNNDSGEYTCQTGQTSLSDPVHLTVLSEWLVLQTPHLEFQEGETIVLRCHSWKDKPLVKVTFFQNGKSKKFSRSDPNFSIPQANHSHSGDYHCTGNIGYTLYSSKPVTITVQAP

Row | He/Con_2b | Binder
16 | 80.1 % of GpH7-A5/GpH7-B3/GpL16-k0 (=100) | B1
17 | 73.4 % of GpH7-A5/GpH7-B3/GpL16-k0 (=100) | B2
18 | 64.5 % of GpH7-A5/GpH7-B3/GpL16-k0 (=100) | B3
19 | 65.4 % of GpH7-A5/GpH7-B3/GpL16-k0 (=100) | B4
20 | 11.9 % of GpH7-A5/GpH7-B3/GpL16-k0 (=100) | B5
21 | 70.6 % of GpH7-A5/GpH7-B3/GpL16-k0 (=100) | B6
22 | 82 % of GpH7-A5/GpH7-B3/GpL16-k0 (=100) | B7
23 | 79.3 % of GpH7-A5/GpH7-B3/GpL16-k0 (=100) | B8
24 | 36.6 % of GpH7-A5/GpH7-B3/GpL16-k0 (=100) | B9
25 | 84.3 % of GpH7-A5/GpH7-B3/GpL16-k0 (=100) | B10
26 | 82.3 % of GpH7-A5/GpH7-B3/GpL16-k0 (=100) | B11
27 | 72.8 % of GpH7-A5/GpH7-B3/GpL16-k0 (=100) | B12
28 | 79.5 % of GpH7-A5/GpH7-B3/GpL16-k0 (=100) | B13
29 | 86.3 % of GpH7-A5/GpH7-B3/GpL16-k0 (=100) | B14
30 | 89.3 % of GpH7-A5/GpH7-B3/GpL16-k0 (=100) | B15

The binders below were run against T3, FcγRIa extracellular domain with C-terminal His tag (human, UniProt P12314 16-292) (assay: SPR Biacore, relative FcγRIa binding vs GpH7-A5/GpH7-B3/GpL16-k0).
T3 construct: extracellular domain; also called FcgRI; CD64; not shown: His tag at the C terminus
T3 sequence (P12314 16-292): as the sequence (P12314 16-292) above

Row | He/Con_1a | Binder
31 | 102 % of HeCon Ab (=100) | B16
32 | 103 % of HeCon Ab (=100) | B17
33 | 102 % of HeCon Ab (=100) | B18
34 | 101 % of HeCon Ab (=100) | B19
35 | 102 % of HeCon Ab (=100) | B20
36 | 104 % of HeCon Ab (=100) | B21
37 | 102 % of HeCon Ab (=100) | B22
38 | 103 % of HeCon Ab (=100) | B23
39 | 103 % of HeCon Ab (=100) | B24

The binders below were run against T1, FcγRIa extracellular domain with … (assay: SPR Biacore; relative binding to FcγRIa divided by that to FcγRIIb).

Row | Ia/IIb He_1a/2b | Binder
40 | 1.29 ratio of He/Con_1a to He/Con_2b | B1
41 | 1.45 ratio of He/Con_1a to He/Con_2b | B2
42 | 1.7 ratio of He/Con_1a to He/Con_2b | B3
43 | 1.67 ratio of He/Con_1a to He/Con_2b | B4
44 | 7.7 ratio of He/Con_1a to He/Con_2b | B5
45 | 1.52 ratio of He/Con_1a to He/Con_2b | B6
46 | 1.26 ratio of He/Con_1a to He/Con_2b | B7
47 | 1.31 ratio of He/Con_1a to He/Con_2b | B8
48 | 2.61 ratio of He/Con_1a to He/Con_2b | B9
49 | 1.24 ratio of He/Con_1a to He/Con_2b | B10
50 | 1.26 ratio of He/Con_1a to He/Con_2b | B11
51 | 1.44 ratio of He/Con_1a to He/Con_2b | B12
52 | 1.34 ratio of He/Con_1a to He/Con_2b | B13
53 | 1.22 ratio of He/Con_1a to He/Con_2b | B14
54 | 1.25 ratio of He/Con_1a to He/Con_2b | B15
